Experiments:
[1] = target: human FGFR2 on human cancer cell lines (human) (UniProt P21802); experiment: FACS, 5 ug/ml, HEC1b cells
[2] = target: human FGFR2 on human cancer cell lines (human) (UniProt P21802); experiment: FACS, 5 ug/ml, NCI-N87 cells
[3] = target: human FGFR2 on human cancer cell lines (human) (UniProt P21802); experiment: FACS, 5 ug/ml, KATOIII cells
[4] = target: murine FGFR2 on murine cancer cell lines (murine) (UniProt P21803); experiment: FACS titration 0.1-100 nM, 4T1 cells
[5] = target: human FGFR2 on human cancer cell lines (human) (UniProt P21802); experiment: FACS, 5 ug/ml, MFE280 cells
[6] = target: human FGFR2 on human cancer cell lines (human) (UniProt P21802); experiment: FACS titration 0.1-100 nM, MFM223 cells
[7] = target: human FGFR2 on human cancer cell lines (human) (UniProt P21802); experiment: FACS, 5 ug/ml, SNU16 cells
[8] = target: murine FGFR2 on murine cancer cell lines (murine) (UniProt P21803); experiment: FACS, 5 ug/ml, 4T1 cells
[9] = target: human FGFR2 on human cancer cell lines (human) (UniProt P21802); experiment: FACS titration 0.1-100 nM, SNU16 cells
[10] = target: mFGFR2β-Fc (IIIc) (murine) (UniProt P21803); experiment: ELISA, 1 ug/ml Fab on coated antigen; grade of signal to background (+ 2-3, ++ 3-5, +++ >5)
[11] = target: hFGFR2β-Fc (IIIc) (human) (UniProt P21802); experiment: as above

Binder | Geo Mean minus Geo Mean of secondary antibody alone (FACS) [1] [geomean] | Geo Mean minus Geo Mean of secondary antibody alone (FACS) [2] [geomean] | Geo Mean minus Geo Mean of secondary antibody alone (FACS) [3] [geomean] | EC50 [4] [nM] | Geo Mean minus Geo Mean of secondary antibody alone (FACS) [5] [geomean] | EC50 [6] [nM] | Geo Mean minus Geo Mean of secondary antibody alone (FACS) [7] [geomean] | Geo Mean minus Geo Mean of secondary antibody alone (FACS) [8] [geomean] | EC50 [9] [nM] | ELISA signal to background ratio [10] | ELISA signal to background ratio [11]
M021-H02-hIgG1 (antibody, V domains shown) VH: EVQLLESGGGLVQPGGSLRLSCAASGFTFSNYGIHWVRQAPGKGLEWVAVISYDGSNKYYADSVKGRFTISRDNSKNTLYLQMNSLRAEDTAMYYCARDSSSAEDYWGQGTLVTVSS VL: QSVLTQPPSASGTPGQRVTISCSGSSSNTGSNTVNWYQQLPGTAPKLLIYRNNQRPSGVPDRFSGSKSGTSASLAISGLRSEDEADYYCETWDSNTRGVVFGGGTKLTVL | 100 to 1000 | 10 to 100 | > 10000 | 20.8 | 10 to 100 | 16.9 | 100 to 1000 | 100 to 1000 | 89.5 |  | 
M021-H02 (soluble Fab) (Fab, V domains shown) VH: EVQLLESGGGLVQPGGSLRLSCAASGFTFSNYGIHWVRQAPGKGLEWVAVISYDGSNKYYADSVKGRFTISRDNSKNTLYLQMNSLRAEDTAMYYCARDSSSAEDYWGQGTLVTVSS VL: QSVLTQPPSASGTPGQRVTISCSGSSSNTGSNTVNWYQQLPGTAPKLLIYRNNQRPSGVPDRFSGSKSGTSASLAISGLRSEDEADYYCETWDSNTRGVVFGGGTKLTVL |  |  |  |  |  |  |  |  |  | > 5 | > 5
M048-D01 (soluble Fab) (Fab, V domains shown) VH: EVQLLESGGGLVQPGGSLRLSCAASGFTFSSYAMSWVRQAPGKGLEWVSAISGSGTSTYYADSVKGRFTISRDNSKNTLYLQMNSLRAEDTAVYYCARVRYNWNHGDWFDPWGQGTLVTVSS VL: QSVLTQPPSASGTPGQRVTISCSGSSSNIGNNYVSWYQQLPGTAPKLLIYENYNRPAGVPDRFSGSKSGTSASLAISGLRSEDEADYYCSSWDDSLNYWVFGGGTKLTVL |  |  |  |  |  |  |  |  |  | > 5 | > 5

Source: patent US20140322220A1
